Three molecules from patent US20200291135A1 (INSPIRNA, published 2020) can be followed below.

For assay [1], the target named is T1, rhMer/Fc Chimera (recombinant human MERTK extracellular domain conjugated to an IgG Fc domain) (human, UniProt Q12866 21-505).
T1 construct: extracellular domain; also called hMER recombinant protein; Mer-Fc conjugate; not shown: IgG Fc domain
T1 sequence (looked up): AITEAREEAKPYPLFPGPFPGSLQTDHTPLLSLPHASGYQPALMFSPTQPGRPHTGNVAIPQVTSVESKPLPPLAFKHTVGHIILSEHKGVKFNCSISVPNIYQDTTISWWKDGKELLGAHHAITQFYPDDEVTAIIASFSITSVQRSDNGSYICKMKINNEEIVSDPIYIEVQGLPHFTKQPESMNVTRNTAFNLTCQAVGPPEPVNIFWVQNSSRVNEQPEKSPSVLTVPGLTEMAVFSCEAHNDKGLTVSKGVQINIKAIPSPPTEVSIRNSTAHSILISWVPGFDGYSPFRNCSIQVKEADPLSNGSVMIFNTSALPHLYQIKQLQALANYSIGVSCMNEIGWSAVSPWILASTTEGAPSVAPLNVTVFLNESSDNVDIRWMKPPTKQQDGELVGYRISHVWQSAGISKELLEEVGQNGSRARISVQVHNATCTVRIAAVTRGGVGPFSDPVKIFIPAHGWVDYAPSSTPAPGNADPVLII
The assay can be described thus: SPR, off-rate; ligand rhMer/Fc Chimera, antibody as analyte; below the detection limit of the instrument. In general terms: Surface plasmon resonance follows binding to a sensor surface in real time, without labels.

The target of assay [2] is T1, rhMer/Fc Chimera (recombinant human …). The assay can be described thus: SPR, avidity format: rhMer/Fc Chimera immobilised on CM5 chip, antibody as analyte, 1:1 fit. As for the experimental part:
With respect to avidity and affinity measurements using SPR, the protocols below were used.
The activator was prepared with a mixture of 400 mM EDC and 100 mM NHS immediately prior to injection. The CM5 sensor chip was activated for 420 s with the mixture. […] The chip was deactivated by 1 M ethanolamine-HCl. […] 8 concentrations (0.3125, 0.625, 1.25, 2.5, 5, 10, 20 and 40 nM) of the antibodies and running buffer were injected at a flow rate of 30 μL/min for an association phase of 240 s, followed by 4800 s dissociation. 10 mM glycine pH 1.5 as regeneration buffer was injected following every dissociation phase. The chip was regenerated with 10 mM glycine pH 1.5. One surface channel without capturing ligand was used as control surface for reference subtraction. Final data of each interaction was deducted from reference channel and buffer channel data. […] A molecular weight of 150 kDa was used to calculate the molar concentration of the antibodies.

Assay [3] addresses T2, human MERTK expressed on cells (SKMEL5 melanoma cells; in vitro differentiated M2 macrophages) (human, UniProt Q12866 21-999).
T2 construct: Endogenous MERTK of human cells; also called surface MERTK
T2 sequence: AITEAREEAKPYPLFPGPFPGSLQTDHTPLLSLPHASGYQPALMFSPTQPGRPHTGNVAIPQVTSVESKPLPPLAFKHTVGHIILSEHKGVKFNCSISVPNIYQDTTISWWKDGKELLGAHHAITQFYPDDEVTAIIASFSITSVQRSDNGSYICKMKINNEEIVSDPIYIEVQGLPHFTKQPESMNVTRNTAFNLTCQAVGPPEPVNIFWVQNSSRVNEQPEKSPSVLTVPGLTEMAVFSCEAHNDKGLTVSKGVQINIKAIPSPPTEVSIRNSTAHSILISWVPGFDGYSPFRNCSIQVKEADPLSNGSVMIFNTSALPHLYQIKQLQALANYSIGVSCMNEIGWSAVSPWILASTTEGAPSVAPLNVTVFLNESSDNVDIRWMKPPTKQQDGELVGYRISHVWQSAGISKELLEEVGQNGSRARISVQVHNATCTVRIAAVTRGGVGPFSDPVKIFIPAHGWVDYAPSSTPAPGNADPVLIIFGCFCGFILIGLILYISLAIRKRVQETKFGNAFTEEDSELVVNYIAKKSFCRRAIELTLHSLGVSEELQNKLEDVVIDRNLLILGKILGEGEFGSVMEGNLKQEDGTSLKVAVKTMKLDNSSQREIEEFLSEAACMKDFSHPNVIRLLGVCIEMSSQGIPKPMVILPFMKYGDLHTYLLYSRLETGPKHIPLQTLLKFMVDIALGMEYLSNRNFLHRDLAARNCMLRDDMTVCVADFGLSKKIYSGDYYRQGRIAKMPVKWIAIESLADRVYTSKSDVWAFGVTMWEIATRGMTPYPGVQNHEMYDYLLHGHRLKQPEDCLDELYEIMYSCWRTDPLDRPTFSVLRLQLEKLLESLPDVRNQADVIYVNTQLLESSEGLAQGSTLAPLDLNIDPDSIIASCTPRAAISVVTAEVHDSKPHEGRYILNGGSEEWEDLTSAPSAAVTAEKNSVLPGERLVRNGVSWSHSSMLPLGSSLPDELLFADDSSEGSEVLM
The assay can be described thus: cell-based assay similar to that for z10 (flow cytometry on cells). For orientation: Flow cytometry measures light scatter and fluorescence of single cells or particles in a stream.

Assay [4] deals with T1, rhMer/Fc Chimera (recombinant human …). The assay can be described thus: SPR, off-rate; ligand rhMer/Fc Chimera, antibody as analyte.

B1: z11 antibody (antibody, human IgG1, kappa, V domains shown)
VH: QVQLVQSGAEVKKPGASVKVSCKASGYTFTNYGMNWVRQAPGQGLEWMGWINTYTGEPTYADDFKGRVTMTLDTSTSTAYMELRSLRSDDMAVYYCARKSTVVSRYFDVWGQGTTVTVSS
VL: DIQMTQSPSFLSASVGDRVTITCKASQDVGDAVTWYQQKPGKAPKLLIYWASTRHTGVPDRFSGSGSGTDFTLTISSLQPEDFATYYCQQYRSYPLTFGQGTKLEIKR
As for B1, the koff in assay [1] was less than 1e-06 s⁻¹. For the same molecule, the Kd in assay [2] was 0.00299 nM. In assay [3], the EC50 was found to be 7.9 nM.

B2: z13 antibody (antibody, human IgG1, kappa, V domains shown)
VH: QVQLVQSGAEVKKPGASVKVSCKASGYTFTNYGMNWVRQAPGQGLEWMGWINTYTGEPTYADDFKGRVTFTLDTSTSTAYMELRSLRSDDMAVYYCARKSTVVSRYFDVWGQGTTVTVSS
VL: DIQMTQSPSFLSASVGDRVTITCKASQDVGDAVTWYQQKPGKAPKLLIYWASTRHTGVPDRFSGSGSGTDFTLTISSLQPEDFATYYCQQYRSYPLTFGQGTKLEIKR
Consider B2, for which the koff in assay [1] was less than 1e-06 s⁻¹. Besides, the Kd in assay [2] turned out to be 0.00368 nM. For the same molecule, the EC50 in assay [3] stood at 7.6 nM.

B3: W3725-xAb-IgG1K/(S34+S35) (antibody, V domains shown)
VH: QIQLVQSGPELKKPGETVKISCKASGYTFTNYGMNWVKQAPGKGLKWMGWINTYTGEPTYADDFKGRFVFSLETSASTAYLQINNLKNEDMATYFCARKSTVVSRYFDVWGAGTTVTVSS
VL: DIVLTQSHKFMSTSVGDRVSITCKASQDVGDAVTWCQQKPGQPPKLLIYWASTRHTGVPDRFTGSGSGTDFTLTINNVQSEDLADYFCQQYRSYPLTFGAGTKLELKR
notes: also called chimeric anti-MERTK antibody
In the case of B3, in assay [4], the koff was determined as 7e-06 s⁻¹.

The term koff denotes a measure of how fast the partners let go of each other. By EC50 is commonly meant the concentration giving half of the maximal effect.
